Measurements taken from patent US20040214235A1 (KIRIN BEER, published 2004).

What was measured:
[1] = target: T1, TRAIL-R1-hFc, fusion protein of the extracellular region of human TRAIL-R1 and the Fc region of human IgG1 (human, UniProt O00220 24-239); assay: ELISA, TRAIL-R1-hFc coated plate, hybridoma culture supernatant
T1 construct: extracellular domain; Bought (ALEXIS); not shown: Fc region of human IgG1
T1 sequence (looked up): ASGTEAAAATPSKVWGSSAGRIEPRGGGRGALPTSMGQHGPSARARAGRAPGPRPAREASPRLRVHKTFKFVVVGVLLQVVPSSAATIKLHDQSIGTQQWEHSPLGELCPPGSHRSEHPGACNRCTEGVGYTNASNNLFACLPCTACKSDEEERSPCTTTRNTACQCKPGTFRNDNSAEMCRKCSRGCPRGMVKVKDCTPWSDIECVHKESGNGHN

[2] = target: T1, TRAIL-R1-hFc, fusion protein of the …; assay: ELISA, TRAIL-R1-hFc coated plate, purified antibody
[3] = target: T2, human TRAIL-R2 on the surface of cells (Colo205, U251, Jurkat, normal human hepatocytes) (human, UniProt O14763 56-440); assay: cell-based or functional assay
[4] = target: T3, TRAIL-R2-hFc, fusion protein of the extracellular region of human TRAIL-R2 and the Fc region of human IgG1 (human, UniProt O14763 56-210); assay: SPR (BIACORE 2000), TRAIL-R2-hFc immobilised on CM5, bivalent model
T3 construct: extracellular domain; Bought (ALEXIS) or made with TRAIL-R2 amino acids 1 to 183 as the extracellular region; not shown: Fc region of human IgG1
Method: TRAIL-R1-hFc or TRAIL-R2-hFc was diluted at a final concentration of 10 μg/ml with 10 mM Acetic Acid (pH 4.0), and then immobilized on a sensor chip CM5 by the amine coupling method. The immobilization conditions are as follows. NHS activation and ethanolamine blocking were performed according to the methods described in the instructions. Coupling of TRAIL-R1-hFc and that of TRAIL-R2-hFc were performed by manual injection as described in the instructions.
Each antibody of the dilution series was added in order at a flow rate of 20 μl/minute by the KINJECT method (binding for 2 minutes and dissociation for 6 minutes), thereby obtaining a sensorgram. […] Each antibody of the dilution series was added in order at a flow rate of 20 μl/minute by the KINJECT method (binding for 2 minutes and dissociation for 2 minutes), thereby obtaining sensorgrams. For each antibody, kinetics analysis was performed using each sensorgram and BIAevaluation software ver3.2 (Biacore). As a fitting model, global fitting was performed using a Bivalent model, so that the binding rate constant and the dissociation rate constant were found. In addition, a dissociation constant (Kd value) was calculated from the two constants. Also, the sensorgrams were used for fitting after the subtraction of control cells and buffer correction. In the tables, “kass” indicates the binding rate constant, “kdiss” indicates the dissociation rate constant, and “KD” indicates the dissociation constant.

[5] = target: T2, human TRAIL-R2 on the surface of cells …; assay: cell-based or functional assay; remark: listed apart in the source
[6] = target: T3, TRAIL-R2-hFc, fusion protein of the …; assay: ELISA on a plate coated with TRAIL-R2-hFc, detection with HRP-labeled goat anti-human Ig kappa, absorbance at 450 nm (method of Example 18)
Method: 50 μl of the thus prepared solution was added to each well of a 96-well microplate for ELISA (Maxisorp, Nunc) and incubated for 1 hour at room temperature or at 4° C. overnight, thereby coating TRAIL-R1-hFc or TRAIL-R2-hFc to the microplate. […] Thus, a microplate having each well coated with TRAIL-R1-hFc or TRAIL-R2-hFc was prepared.
The culture supernatant of each hybridoma (50 μl) was added to each well, reaction was performed at room temperature for 1 hour, and then each well was washed three times in 0.1% Tween20-containing PBS (PBS-T). Subsequently, horseradish peroxidase-labeled goat anti-human Igκ antibodies (50 μl/well, Biosource International) were diluted 2000 times in PBS-T containing 10% Block Ace (Dainippon Pharmaceutical Co., Ltd.). 50 μl of the thus prepared solution was added to each well, and incubation was then performed at room temperature for 30 minutes; The microplate was washed three times with PBS-T, and then 50 μl of a TMB chromogenic substrate solution (DAKO) was added to each well, followed by incubation at room temperature for 20 minutes. 0.5M sulfuric acid was added (50 μl/well) to each well to stop reaction.
For the measurement of the binding activity, 96-well microplate for ELISA (Maxisorp, Nunc) to which TRAIL-R2-hFc was coated was used.

B1: human anti-TRAIL-R2 monoclonal antibody H-48-2 (antibody, IgG1, V domains shown)
VH: QLQLQESGPGLVKPSETLSLTCTVSGGSISSSSYYWGWVRQPPGKGLEWIGSIHYSGSTFYNPSLKSRVTISVDTSKNQFSLKLSSVTAADTTVYYCARQGSTVVRGVYYYGMDVWGQGTTVTVSS
VL: not shown
notes: IgG1, human kappa light chain; Hybridoma FERM BP-7599; also called H-48-2-IgG1
- binding result [1]: no binding

B2: human anti-TRAIL-R2 monoclonal antibody KMTR1 (antibody, IgG1, V domains shown)
VH: EVQLLESGGGLVQPGRSLRLSCAASGFTFSSYAMSWVRQAPGKGLEWVSAISGSGGSRYYADSVKGRFTISRDNSKNTLYLQMNSLRAEDTAVYYCAKESSGWFGAFDYWGQGTLVTVSS
VL: EIVLTQSPDFQSVTPKEKVTITCRASQSIGSSLHWYQQKPDQSPKLLIKYASQSFSGVPSRFSGSGSGTDFTLTINSLEAEDAAAYYCHQSSSLPITFGQGTRLEIK
notes: IgG1, human kappa light chain
- binding result [2]: binds
- LD50, Colo205 cells, 48 h, with goat anti-human IgG cross-linker [3]: 0.04 µg/mL
- LD50, normal human hepatocytes, 24 h, with goat anti-human IgG cross-linker [3]: > 10 µg/mL

B3: human anti-TRAIL-R2 monoclonal antibody E-11-13 (antibody, IgG1, V domains shown)
VH: QLQLQESGPGLVKPSETLSLTCTVSGGSIISKSSYWGWIRQPPGKGLEWIGSIYYSGSTFYNPSLKSRVTISVDTSKNQFSLKLSSVTAADTAVYYCARLTVAEFDYWGQGTLVTVSS
VL: EIVLTQSPATLSLSPGERATLSCRASQSVSSFLAWYQQKPGQAPRLLIYDASNRATGIPARFSGSGSGTDFTLTISSLEPEDFAVYYCQQRSNWPLTFGPGTKVDIK
notes: Hybridoma FERM BP-7698 / BP-7770; also called E-11-3
- Kd [4]: 0.0729 nM
- koff [4]: 3.84e-05 s⁻¹
- kon [4]: 527000 M⁻¹ s⁻¹
- LD50, Jurkat cells, 48 h [5]: 0.1 µg/mL
- LD50, U251 cells, 48 h [5]: 0.3 µg/mL
- LD50, Colo205 cells, 48 h, with goat anti-human IgG cross-linker [3]: 0.11 µg/mL
- LD50, normal human hepatocytes, 24 h, with goat anti-human IgG cross-linker [3]: 2.8 µg/mL

B4: recombinant 0304 antibody of which subclass is IgG1 (antibody, V domains shown)
VH: QVQLVQSGAEMKKPGASVKVSCKTSGYTFTNYKINWVRQAPGQGLEWMGWMNPDTDSTGYPQKFQGRVTMTRNTSISTAYMELSSLRSEDTAVYYCARSYGSGSYYRDYYYGMDVWGQGTTVTVSS
VL: EIVLTQSPATLSLSPGERATLSCRASQSVSSYLAWYQQKPGQAPRLLIYDASNRATGIPARFSGSGSGTDFTLTISSLEPEDFAVYYCQQRSNWPLTFGGGTKVEIK
- EC50 (read off the curve) [6]: ~0.03 µg/mL

B5: human anti-TRAIL-R2 monoclonal antibody 0304 (from the hybridoma) (antibody, IgG4, V domains shown)
VH: QVQLVQSGAEMKKPGASVKVSCKTSGYTFTNYKINWVRQAPGQGLEWMGWMNPDTDSTGYPQKFQGRVTMTRNTSISTAYMELSSLRSEDTAVYYCARSYGSGSYYRDYYYGMDVWGQGTTVTVSS
VL: EIVLTQSPATLSLSPGERATLSCRASQSVSSYLAWYQQKPGQAPRLLIYDASNRATGIPARFSGSGSGTDFTLTISSLEPEDFAVYYCQQRSNWPLTFGGGTKVEIK
notes: IgG4, human kappa light chain
- binding result [2]: no binding
- LD50, Colo205 cells, 48 h, with goat anti-human IgG cross-linker [3]: 0.02 µg/mL
- LD50, normal human hepatocytes, 24 h, with goat anti-human IgG cross-linker [3]: 0.002 µg/mL

B6: recombinant 0304 antibody of which subclass is IgG4 (antibody, V domains shown)
VH: QVQLVQSGAEMKKPGASVKVSCKTSGYTFTNYKINWVRQAPGQGLEWMGWMNPDTDSTGYPQKFQGRVTMTRNTSISTAYMELSSLRSEDTAVYYCARSYGSGSYYRDYYYGMDVWGQGTTVTVSS
VL: EIVLTQSPATLSLSPGERATLSCRASQSVSSYLAWYQQKPGQAPRLLIYDASNRATGIPARFSGSGSGTDFTLTISSLEPEDFAVYYCQQRSNWPLTFGGGTKVEIK
- EC50 (read off the curve) [6]: ~0.03 µg/mL

B7: human anti-TRAIL-R2 monoclonal antibody L-30-10 (antibody, IgG1, V domains shown)
VH: QLQLQESGPGLVKPSETLSLTCTVSGGSISSRSNYWGWIRQPPGKGLEWIGNVYYRGSTYYNSSLKSRVTISVDTSKNQFSLKLSSVTVADTAVYYCARLSVAEFDYWGQGILVTVSS
VL: EIVLTQSPATLSLSPGERATLSCRASQSVSSFLAWYQQKPGQAPRLLIYDASNRATGSPARFSGSGSGTDFTLTISSLEPEDFAVYYCQQRSDWPLTFGPGTKVDIK
notes: Hybridoma FERM BP-7700 / BP-7769
- Kd [4]: 2.35 nM
- koff [4]: 0.00144 s⁻¹
- kon [4]: 613000 M⁻¹ s⁻¹
- LD50, Jurkat cells, 48 h [5]: 0.13 µg/mL
- LD50, U251 cells, 48 h [5]: 0.17 µg/mL
- LD50, Colo205 cells, 48 h, with goat anti-human IgG cross-linker [3]: 0.1 µg/mL
- LD50, normal human hepatocytes, 24 h, with goat anti-human IgG cross-linker [3]: 24 µg/mL
